US20100221748A1

Target: T1, RB-C fusion protein (residues 701-928) (UniProt P06400)
T1 sequence: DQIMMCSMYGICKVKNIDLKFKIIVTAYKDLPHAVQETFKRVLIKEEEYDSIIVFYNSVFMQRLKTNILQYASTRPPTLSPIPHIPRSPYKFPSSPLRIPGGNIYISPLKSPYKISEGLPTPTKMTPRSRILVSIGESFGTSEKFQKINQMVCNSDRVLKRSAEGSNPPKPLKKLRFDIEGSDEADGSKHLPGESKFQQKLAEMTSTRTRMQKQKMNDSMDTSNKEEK

AMPK holoenzyme (α/β/γ heterotrimers)
nonradioactive in vitro kinase assay; phosphorylation monitored by immunoblot using phospho-Rb800/804 antibody: AMPK directly phosphorylated Rb at Ser804 and that this modification could be inhibited by the AMPK inhibitor, compound C
